Experimental data as given in US20120156198A1 (Hoffmann-La Roche, published 2012).

T1: recombinant human IL-18Rα Fc chimera (R&D Systems, Cat. No. 816-LR) (human, UniProt Q13478 19-329)
T1 construct: Bought protein; also called hIL-18Rα (hFc-chimera R&D-Systems 816-LR); recombinant human IL-18Rα-Fc fusion protein; not shown: human Fc of the commercial chimera
T1 sequence: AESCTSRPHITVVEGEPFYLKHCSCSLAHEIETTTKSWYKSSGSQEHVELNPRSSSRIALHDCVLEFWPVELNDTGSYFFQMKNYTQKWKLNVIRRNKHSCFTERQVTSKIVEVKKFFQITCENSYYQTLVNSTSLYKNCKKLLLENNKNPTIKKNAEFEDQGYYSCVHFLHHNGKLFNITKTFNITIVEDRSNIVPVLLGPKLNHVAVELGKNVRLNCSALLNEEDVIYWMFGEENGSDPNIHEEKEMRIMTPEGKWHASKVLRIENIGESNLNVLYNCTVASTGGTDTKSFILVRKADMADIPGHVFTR

T2: human IL-18Rα (IL-18R1) on human cells (KG-1 cells, PBMC, TH1-cultured T cells, whole blood) (human, UniProt Q13478 19-541)
T2 sequence: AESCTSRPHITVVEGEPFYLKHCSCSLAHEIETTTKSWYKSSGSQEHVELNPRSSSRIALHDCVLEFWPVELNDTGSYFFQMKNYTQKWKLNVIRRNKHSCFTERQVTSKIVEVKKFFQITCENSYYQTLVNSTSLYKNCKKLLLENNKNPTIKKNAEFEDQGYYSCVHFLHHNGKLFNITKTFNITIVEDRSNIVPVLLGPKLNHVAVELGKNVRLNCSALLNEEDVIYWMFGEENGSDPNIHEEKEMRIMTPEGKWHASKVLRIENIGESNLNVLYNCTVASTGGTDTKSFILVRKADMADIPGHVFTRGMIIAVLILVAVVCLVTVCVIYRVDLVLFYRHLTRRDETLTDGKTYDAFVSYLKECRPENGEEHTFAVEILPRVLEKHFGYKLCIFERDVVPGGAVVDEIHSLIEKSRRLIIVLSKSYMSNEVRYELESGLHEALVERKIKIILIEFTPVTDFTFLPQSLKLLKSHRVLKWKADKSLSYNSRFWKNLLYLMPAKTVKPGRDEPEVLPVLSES

T3: rhIL-1RI/hFc (R&D Systems, Cat. No. 269-1R) (human, UniProt P14778 18-332)
T3 construct: Bought; not shown: human Fc (hFc) of the commercial protein
T3 sequence (looked up): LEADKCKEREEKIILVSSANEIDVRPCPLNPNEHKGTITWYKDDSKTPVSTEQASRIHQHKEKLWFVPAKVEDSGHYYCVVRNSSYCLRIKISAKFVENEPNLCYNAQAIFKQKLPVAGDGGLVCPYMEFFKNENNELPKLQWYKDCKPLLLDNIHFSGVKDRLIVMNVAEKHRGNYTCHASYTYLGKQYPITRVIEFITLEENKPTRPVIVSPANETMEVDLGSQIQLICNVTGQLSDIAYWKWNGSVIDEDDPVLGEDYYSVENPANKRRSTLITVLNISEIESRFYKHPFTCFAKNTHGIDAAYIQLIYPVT


Legend:
[1] = target: T1, recombinant human IL-18Rα Fc chimera …; experiment: SPR (BIACORE), 37°C, antibody captured, hIL-18Rα hFc chimera in solution; apparent KD, Langmuir 1:1
Experimental: Coupling: amine coupling Buffer: 1×PBS (10×PBS, Ambion cat. AM9625), pH 7.4, 37° C. […] Association was measured by a hIL-18Rα-injection of 1.5 minutes at 37° C.; dissociation was measured by washing the chip surface with buffer for 10 minutes at 37° C. For calculation of apparent KD and other kinetic parameters the Langmuir 1:1 model was used.

[2] = target: T2, human IL-18Rα (IL-18R1) on human cells …; experiment: cell-based or functional assay
[3] = target: T2, human IL-18Rα (IL-18R1) on human cells …; experiment: cell-based or functional assay; remark: listed apart in the source
[4] = target: T1, recombinant human IL-18Rα Fc chimera …; experiment: ELISA, hFc fusion protein captured on anti-human Fc
Experimental: (§1) The test was performed on 384-well microtiter plates (MaxiSorp™, Thermo Scientific Nunc, DK, Cat. No. 464718) at RT. After each incubation step, plates were washed 3 times with PBST. At the beginning, plates were coated with 0.5 μg/ml goat anti-human IgG Fc fragment (Jackson 1 mm. Res., US, Cat. No. 109-006-170) for at least 2 hours (h). Thereafter the wells were blocked with PBS supplemented with 0.2% Tween®-20 and 2% BSA (Roche Diagnostics GmbH, DE) for 1 h. 0.2 μg/ml of recombinant human IL-18Rα-Fc fusion protein (R&D Systems, UK, Cat. No. 816-LR) was captured on plate for 1 h. For testing the binding of antibodies to other proteins of the IL-1 receptor family 0.2 μg/ml of the following recombinant human proteins conjugated to human Fc (hFc) were captured: [0194] rhIL-1RI/hFc (R&D Systems, UK, Cat. No. 269-1R) [0195] rhIL-1sRII/hFc (R&D Systems, UK, Cat. No. 263-2R) [0196] rhIL-1R3/hFc (R&D Systems, UK, Cat. No. 676-CP) [0197] rhIL-2Rα/hFc (R&D Systems, UK, Cat. No. 1020-RL) [0198] rhIL-7Rα/hFc (R&D Systems, UK, Cat. No. 306-IR) [0199] rhIL-15R/hFc (R&D Systems, UK, Cat. No. 147-IR) [0200] rhST-2/hFc (R&D Systems, UK, Cat. No. 523-ST)
(§2) After washing the plate, dilutions of purified antibodies in PBS with 0.05% BSA and 0.2% Tween®-20 were incubated with the receptor proteins for 1 h. Binding of antibodies was detected with 1:2000 diluted horseradish peroxidase (HRP)-conjugates of anti-mouse IgG (GE Healthcare, UK, Cat. No. NA9310V). After 1 h the plates were washed 6 times with PBST and developed with freshly prepared BM Blue® POD substrate solution (BM Blue®: 3,3″-5,5″-Tetramethylbenzidine, Roche Diagnostics GmbH, DE, Cat. No. 11484281001) for 30 minutes at RT. Absorbance was measured at 370 nm. The values were corrected for the control without antibody.

[5] = target: T3, rhIL-1RI/hFc (R&D Systems, Cat. No. …); experiment: as above
Experimental: as §1, §2

[6] = target: T4, rhIL-15R/hFc (R&D Systems, Cat. No. 147-IR) (human, UniProt Q13261 31-205); experiment: as above
T4 construct: Bought; not shown: human Fc (hFc) of the commercial protein
Experimental: as §1, §2

T4 sequence (Q13261 31-205): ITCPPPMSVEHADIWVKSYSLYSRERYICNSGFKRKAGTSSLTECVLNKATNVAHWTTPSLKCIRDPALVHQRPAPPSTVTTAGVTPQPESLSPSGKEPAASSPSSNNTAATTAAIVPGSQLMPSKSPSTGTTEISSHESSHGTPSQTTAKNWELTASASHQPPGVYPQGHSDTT

Row | Binder | Kd [1] | IL-18 induced IFNγ production in human PBMC, IC50 [ng/ml] [2] | IL-18 induced IFNγ production by human KG-1 cells, IC50 [pM] [3] | absorbance at 370 nm (corrected for the control without antibody) [4] | absorbance at 370 nm (corrected for the control without antibody) [5] | absorbance at 370 nm (corrected for the control without antibody) [6]
1 | Mab 1G12 (antibody, V domains shown, Monoclonal antibody from immunized NMRI mice; detected with anti-mouse IgG1-PE / anti-mouse IgG; also called F20.1G12; monoclonal antibody 1G12) VH: QVQLQQPGAELVKPGASVRMSCKTSDYTFTSNWMHWVKQRPGQGLEWIGTIDPSDSYTYYNQKFKGRATLTVDTSSSTAYMQLSSLTSEDSAVYYCTTSGDYDADRYFDVWGAGTTVTVSS VL: DIVLTQSPASLGVSLGQRATISCRASKSVSTSGDSYMHWYQQKPGQSPKLLIYLASNLESGVPARFSGSGSGTDFTLNIHPVEEEDAATYYCQQSRELPLSFGAGTKLELK | 0.027 nM | 0.76 ng/mL | 27 pM | 2.43 | 0.01 | 0.04
2 | Mab 2D11 (antibody, V domains shown, Monoclonal antibody from immunized NMRI mice; detected with anti-mouse IgG1-PE / anti-mouse IgG; also called F20.2D11) VH: QVQLQQPGAELVKPGASVKMSCKASDYTFTSNWMHWVKQRPGQGLEWIGTIDPSDSYTYYNQKFKGKATLTVDTSSSTAYMHLSSLTSEDSAVYYCTTSGDYDADRYFDVWGAGTTVTVSS VL: DIVLTQSPASLGVSLGQRATISCRASKSVSTSGDSYMHWYQQKPGQSPKLLIYLASNLESGVPARFSGSGSGTDFTLNIHPVEEEDAATYYCQQSRELPLSFGAGTKLELK | 0.027 nM | 1.71 ng/mL | 43 pM | 2.56 | 0.02 | 0.19
